Source: PMC12350541, “Continuous Spectrophotometric Assay for Defluorinase and Dechlorinase Activities With α‐Halocarboxylic Acids” (Microbial Biotechnology, 2025)

Key:
[1] = tested on: O=C(O)C(F)Cl; experiment: LDH-coupled NADH oxidation, A340, 96-well plate, Michaelis-Menten fit; assay type: biochemical, Dechloromonas aromatica (nom. nud.); settings: 0.1 M Tris pH 8.0, room temperature not stated for plate, 40 ug DEF2, 50 ug LDH, 400 uM NADH, racemic substrate 1-30 mM
[2] = target: T1, rabbit heart lactate dehydrogenase (Oryctolagus cuniculus, UniProt A0A5F9DPL1); experiment: NADH oxidation, A340; assay type: biochemical; settings: 0.300 mM NADH, 0.1 M Tris pH 9.0
T1 construct: gene LDHB; commercial native enzyme from heart (MilliporeSigma), tetramer
T1 sequence (A0A5F9DPL1 1-334): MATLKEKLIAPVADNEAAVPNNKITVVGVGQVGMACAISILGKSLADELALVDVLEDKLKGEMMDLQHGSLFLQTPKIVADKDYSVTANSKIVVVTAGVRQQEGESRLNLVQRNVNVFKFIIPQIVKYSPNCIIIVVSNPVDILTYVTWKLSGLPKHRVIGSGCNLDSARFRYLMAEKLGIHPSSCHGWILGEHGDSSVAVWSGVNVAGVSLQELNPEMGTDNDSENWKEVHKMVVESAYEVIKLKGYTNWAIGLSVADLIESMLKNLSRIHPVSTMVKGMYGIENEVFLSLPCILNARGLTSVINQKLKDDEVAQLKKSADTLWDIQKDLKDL

| Compound | Km [1] | kcat [1] | NADH oxidation, A340 [2] |
| --- | --- | --- | --- |
| DEF2 (Dechloromonas aromatica RCB) | 6.0 mM | 0.00533 s⁻¹ |  |
| O=CC(=O)O [glyoxylate] |  |  | activity with commercial rabbit heart lactate dehydrogenase with glyoxylate was too slow |
